Source: patent US20200087373A1 (UNIVERSITY OF COPENHAGEN, published 2020)
Ends that are not written are not given here. * marks the point of attachment. C16 diacid = O=C(O)CCCCCCCCCCCCCCC(=O)*

T1: human GIP receptor (human, UniProt P48546 22-466)
T1 sequence (looked up): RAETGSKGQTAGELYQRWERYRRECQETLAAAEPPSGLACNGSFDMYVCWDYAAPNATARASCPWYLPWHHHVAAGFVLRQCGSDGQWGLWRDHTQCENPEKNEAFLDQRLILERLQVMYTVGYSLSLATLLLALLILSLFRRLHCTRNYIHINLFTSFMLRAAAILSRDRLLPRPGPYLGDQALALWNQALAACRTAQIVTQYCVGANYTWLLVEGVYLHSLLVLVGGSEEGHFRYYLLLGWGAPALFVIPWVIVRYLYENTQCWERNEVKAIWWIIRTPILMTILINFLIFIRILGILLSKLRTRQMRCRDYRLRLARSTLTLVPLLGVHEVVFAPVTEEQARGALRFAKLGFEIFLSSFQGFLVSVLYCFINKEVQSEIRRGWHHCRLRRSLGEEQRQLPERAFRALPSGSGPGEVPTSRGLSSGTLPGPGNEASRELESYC

B1: AT175 [hGIP(5-30)NH2[A13K]-C16diacid/13] (peptide)
peptide: TFISDYSIK(C16 diacid)MDKIHQQDFVNWLLAQK-NH2
modifications: N-terminus assumed
SMILES: CC[C@H](C)[C@H](NC(=O)[C@H](CCCCN)NC(=O)[C@H](CC(=O)O)NC(=O)[C@H](CCSC)NC(=O)[C@H](CCCCNC(=O)CCCCCCCCCCCCCCC(=O)O)NC(=O)[C@@H](NC(=O)[C@H](CO)NC(=O)[C@H](Cc1ccc(O)cc1)NC(=O)[C@H](CC(=O)O)NC(=O)[C@H](CO)NC(=O)[C@@H](NC(=O)[C@H](Cc1ccccc1)NC(=O)[C@@H](N)[C@@H](C)O)[C@@H](C)CC)[C@@H](C)CC)C(=O)N[C@@H](Cc1c[nH]cn1)C(=O)N[C@@H](CCC(N)=O)C(=O)N[C@@H](CCC(N)=O)C(=O)N[C@@H](CC(=O)O)C(=O)N[C@@H](Cc1ccccc1)C(=O)N[C@H](C(=O)N[C@@H](CC(N)=O)C(=O)N[C@@H](Cc1c[nH]c2ccccc12)C(=O)N[C@@H](CC(C)C)C(=O)N[C@@H](CC(C)C)C(=O)N[C@@H](C)C(=O)N[C@@H](CCC(N)=O)C(=O)N[C@@H](CCCCN)C(N)=O)C(C)C
B2: AT176 [hGIP(5-30)NH2[M14K]-C16diacid/14] (peptide)
peptide: TFISDYSIAK(C16 diacid)DKIHQQDFVNWLLAQK-NH2
modifications: N-terminus assumed
SMILES: CC[C@H](C)[C@H](NC(=O)[C@H](CO)NC(=O)[C@H](Cc1ccc(O)cc1)NC(=O)[C@H](CC(=O)O)NC(=O)[C@H](CO)NC(=O)[C@@H](NC(=O)[C@H](Cc1ccccc1)NC(=O)[C@@H](N)[C@@H](C)O)[C@@H](C)CC)C(=O)N[C@@H](C)C(=O)N[C@@H](CCCCNC(=O)CCCCCCCCCCCCCCC(=O)O)C(=O)N[C@@H](CC(=O)O)C(=O)N[C@@H](CCCCN)C(=O)N[C@H](C(=O)N[C@@H](Cc1c[nH]cn1)C(=O)N[C@@H](CCC(N)=O)C(=O)N[C@@H](CCC(N)=O)C(=O)N[C@@H](CC(=O)O)C(=O)N[C@@H](Cc1ccccc1)C(=O)N[C@H](C(=O)N[C@@H](CC(N)=O)C(=O)N[C@@H](Cc1c[nH]c2ccccc12)C(=O)N[C@@H](CC(C)C)C(=O)N[C@@H](CC(C)C)C(=O)N[C@@H](C)C(=O)N[C@@H](CCC(N)=O)C(=O)N[C@@H](CCCCN)C(N)=O)C(C)C)[C@@H](C)CC
B3: AT181 [hGIP(5-30)NH2[D21K]-C16diacid/21] (peptide)
peptide: TFISDYSIAMDKIHQQK(C16 diacid)FVNWLLAQK-NH2
modifications: N-terminus assumed
SMILES: CC[C@H](C)[C@H](NC(=O)[C@H](CO)NC(=O)[C@H](Cc1ccc(O)cc1)NC(=O)[C@H](CC(=O)O)NC(=O)[C@H](CO)NC(=O)[C@@H](NC(=O)[C@H](Cc1ccccc1)NC(=O)[C@@H](N)[C@@H](C)O)[C@@H](C)CC)C(=O)N[C@@H](C)C(=O)N[C@@H](CCSC)C(=O)N[C@@H](CC(=O)O)C(=O)N[C@@H](CCCCN)C(=O)N[C@H](C(=O)N[C@@H](Cc1c[nH]cn1)C(=O)N[C@@H](CCC(N)=O)C(=O)N[C@@H](CCC(N)=O)C(=O)N[C@@H](CCCCNC(=O)CCCCCCCCCCCCCCC(=O)O)C(=O)N[C@@H](Cc1ccccc1)C(=O)N[C@H](C(=O)N[C@@H](CC(N)=O)C(=O)N[C@@H](Cc1c[nH]c2ccccc12)C(=O)N[C@@H](CC(C)C)C(=O)N[C@@H](CC(C)C)C(=O)N[C@@H](C)C(=O)N[C@@H](CCC(N)=O)C(=O)N[C@@H](CCCCN)C(N)=O)C(C)C)[C@@H](C)CC
B4: AT179 [hGIP(5-30)NH2[Q19K]-C16diacid/19] (peptide)
peptide: TFISDYSIAMDKIHK(C16 diacid)QDFVNWLLAQK-NH2
modifications: N-terminus assumed
SMILES: CC[C@H](C)[C@H](NC(=O)[C@H](CO)NC(=O)[C@H](Cc1ccc(O)cc1)NC(=O)[C@H](CC(=O)O)NC(=O)[C@H](CO)NC(=O)[C@@H](NC(=O)[C@H](Cc1ccccc1)NC(=O)[C@@H](N)[C@@H](C)O)[C@@H](C)CC)C(=O)N[C@@H](C)C(=O)N[C@@H](CCSC)C(=O)N[C@@H](CC(=O)O)C(=O)N[C@@H](CCCCN)C(=O)N[C@H](C(=O)N[C@@H](Cc1c[nH]cn1)C(=O)N[C@@H](CCCCNC(=O)CCCCCCCCCCCCCCC(=O)O)C(=O)N[C@@H](CCC(N)=O)C(=O)N[C@@H](CC(=O)O)C(=O)N[C@@H](Cc1ccccc1)C(=O)N[C@H](C(=O)N[C@@H](CC(N)=O)C(=O)N[C@@H](Cc1c[nH]c2ccccc12)C(=O)N[C@@H](CC(C)C)C(=O)N[C@@H](CC(C)C)C(=O)N[C@@H](C)C(=O)N[C@@H](CCC(N)=O)C(=O)N[C@@H](CCCCN)C(N)=O)C(C)C)[C@@H](C)CC
B5: AT178 [hGIP(5-30)NH2[I17K]-C16diacid/17] (peptide)
peptide: TFISDYSIAMDKK(C16 diacid)HQQDFVNWLLAQK-NH2
modifications: N-terminus assumed
SMILES: CC[C@H](C)[C@H](NC(=O)[C@H](CO)NC(=O)[C@H](Cc1ccc(O)cc1)NC(=O)[C@H](CC(=O)O)NC(=O)[C@H](CO)NC(=O)[C@@H](NC(=O)[C@H](Cc1ccccc1)NC(=O)[C@@H](N)[C@@H](C)O)[C@@H](C)CC)C(=O)N[C@@H](C)C(=O)N[C@@H](CCSC)C(=O)N[C@@H](CC(=O)O)C(=O)N[C@@H](CCCCN)C(=O)N[C@@H](CCCCNC(=O)CCCCCCCCCCCCCCC(=O)O)C(=O)N[C@@H](Cc1c[nH]cn1)C(=O)N[C@@H](CCC(N)=O)C(=O)N[C@@H](CCC(N)=O)C(=O)N[C@@H](CC(=O)O)C(=O)N[C@@H](Cc1ccccc1)C(=O)N[C@H](C(=O)N[C@@H](CC(N)=O)C(=O)N[C@@H](Cc1c[nH]c2ccccc12)C(=O)N[C@@H](CC(C)C)C(=O)N[C@@H](CC(C)C)C(=O)N[C@@H](C)C(=O)N[C@@H](CCC(N)=O)C(=O)N[C@@H](CCCCN)C(N)=O)C(C)C
B6: AT180 [hGIP(5-30)NH2[Q20K]-C16diacid/20] (peptide)
peptide: TFISDYSIAMDKIHQK(C16 diacid)DFVNWLLAQK-NH2
modifications: N-terminus assumed
SMILES: CC[C@H](C)[C@H](NC(=O)[C@H](CO)NC(=O)[C@H](Cc1ccc(O)cc1)NC(=O)[C@H](CC(=O)O)NC(=O)[C@H](CO)NC(=O)[C@@H](NC(=O)[C@H](Cc1ccccc1)NC(=O)[C@@H](N)[C@@H](C)O)[C@@H](C)CC)C(=O)N[C@@H](C)C(=O)N[C@@H](CCSC)C(=O)N[C@@H](CC(=O)O)C(=O)N[C@@H](CCCCN)C(=O)N[C@H](C(=O)N[C@@H](Cc1c[nH]cn1)C(=O)N[C@@H](CCC(N)=O)C(=O)N[C@@H](CCCCNC(=O)CCCCCCCCCCCCCCC(=O)O)C(=O)N[C@@H](CC(=O)O)C(=O)N[C@@H](Cc1ccccc1)C(=O)N[C@H](C(=O)N[C@@H](CC(N)=O)C(=O)N[C@@H](Cc1c[nH]c2ccccc12)C(=O)N[C@@H](CC(C)C)C(=O)N[C@@H](CC(C)C)C(=O)N[C@@H](C)C(=O)N[C@@H](CCC(N)=O)C(=O)N[C@@H](CCCCN)C(N)=O)C(C)C)[C@@H](C)CC
B7: AT177 [hGIP(5-30)NH2[D15K]-C16diacid/15] (peptide)
peptide: TFISDYSIAMK(C16 diacid)KIHQQDFVNWLLAQK-NH2
modifications: N-terminus assumed
SMILES: CC[C@H](C)[C@H](NC(=O)[C@H](CO)NC(=O)[C@H](Cc1ccc(O)cc1)NC(=O)[C@H](CC(=O)O)NC(=O)[C@H](CO)NC(=O)[C@@H](NC(=O)[C@H](Cc1ccccc1)NC(=O)[C@@H](N)[C@@H](C)O)[C@@H](C)CC)C(=O)N[C@@H](C)C(=O)N[C@@H](CCSC)C(=O)N[C@@H](CCCCNC(=O)CCCCCCCCCCCCCCC(=O)O)C(=O)N[C@@H](CCCCN)C(=O)N[C@H](C(=O)N[C@@H](Cc1c[nH]cn1)C(=O)N[C@@H](CCC(N)=O)C(=O)N[C@@H](CCC(N)=O)C(=O)N[C@@H](CC(=O)O)C(=O)N[C@@H](Cc1ccccc1)C(=O)N[C@H](C(=O)N[C@@H](CC(N)=O)C(=O)N[C@@H](Cc1c[nH]c2ccccc12)C(=O)N[C@@H](CC(C)C)C(=O)N[C@@H](CC(C)C)C(=O)N[C@@H](C)C(=O)N[C@@H](CCC(N)=O)C(=O)N[C@@H](CCCCN)C(N)=O)C(C)C)[C@@H](C)CC

Target: T1, human GIP receptor
Test: cell-based or functional assay

Row | Binder | cAMP accumulation Fold (fold change from GIP(5-30)NH2) [fold] | cAMP accumulation IC50 [nM] | cAMP accumulation logIC50
1 | B1 | 0.5 | 14.1 | -7.85 log(M)
2 | B2 | 3.8 | 105 | -6.98 log(M)
3 | B3 | 0.5 | 12.6 | -7.9 log(M)
4 | B4 | 2.1 | 57.5 | -7.24 log(M)
5 | B5 | 1 | 27.5 | -7.56 log(M)
6 | B6 | 1.7 | 46.8 | -7.33 log(M)
7 | B7 | 1.3 | 37.2 | -7.43 log(M)

Target: T1, human GIP receptor
Test: 125I-hGIP(1-42) competition binding, COS-7 cells expressing human GIPR, with 2% HSA;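 also: nonspecific signal taken as radioligand bound to untransfected cells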
Experimental: (§1) After incubation, the cells were washed twice in ice-cold binding buffer (+/−2% HSA) and lysed using 200 mM NaOH with 1% SDS for 30 min. Nonspecific binding was determined as the binding of radioactive ligand to untransfected cells.

Row | Binder | Ki [nM]
8 | B1 | 498
9 | B2 | 420
10 | B3 | 120
11 | B4 | 2380
12 | B5 | 243
13 | B6 | 533
14 | B7 | 444

Target: T1, human GIP receptor
Test: ratio of Ki with 2% HSA to Ki without HSA, 125I-hGIP competition binding on hGIPR COS-7 cells;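 also: nonspecific binding was defined as radioligand signal on cells lacking the receptor transfection, with cell lysates measured after washes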
Experimental: as §1

Row | Binder | Fold (Ki + HSA / Ki - HSA) [fold]
15 | B1 | 9.4
16 | B2 | 5.1
17 | B3 | 3.6
18 | B4 | 6.3
19 | B5 | 4.5
20 | B6 | 6.4
21 | B7 | 3.8

Target: T1, human GIP receptor
Test: 125I-hGIP(1-42) competition binding, COS-7 cells expressing human GIPR, without HSA;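 also: nonspecific binding defined as radioligand bound to cells lacking the transfected receptor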
Experimental: as §1

Row | Binder | Ki [nM]
22 | B1 | 53
23 | B2 | 82.6
24 | B3 | 33.3
25 | B4 | 378
26 | B5 | 54.3
27 | B6 | 82.8
28 | B7 | 117
